From publication PMC11240984

Target: F-actin (fibrillar actin from rabbit skeletal muscle) (rabbit) (UniProt P68135)
Assay: co-sedimentation; 10 µM F-actin with 0.5 to 7.5 µM Tpm in 30 mM Hepes-Na pH 7.3, 200 mM NaCl; pelleted at 100,000 x g; SDS-PAGE of pellet and supernatant; apparent affinity, K50% = free Tpm at half-saturation of actin
Settings: not given

Row | K50% [µM] | Substance
1 | 0.3 | Tpm1.8, cytoplasmic tropomyosin isoform (human, TPM1 gene product) (natural protein)
2 | 0.79 | Tpm1.9, cytoplasmic tropomyosin isoform (human, TPM1 gene product) (natural protein)
3 | 0.59 | AS-Tpm1.8, Tpm1.8 with N-terminal Ala-Ser extension (natural protein)
4 | 0.98 | AS-Tpm1.9, Tpm1.9 with N-terminal Ala-Ser extension (natural protein)

Target: F-actin (fibrillar actin from rabbit skeletal muscle) (rabbit) (UniProt P68135)
Assay: light scattering on heating (thermally induced dissociation of Tpm from F-actin); 20 µM phalloidin-stabilized F-actin and 10.5 µM Tpm (legend: 10 µM) in 30 mM Hepes-Na pH 7.3, 100 mM NaCl; heated to 65 °C at 1 °C/min; 350 nm, 90°; T_diss = temperature of 50% decrease in light scattering
Settings: not given

Row | T diss (temperature of half-dissociation of Tpm from F-actin) [°C] | Substance
5 | 44.4 | Tpm1.8, cytoplasmic tropomyosin isoform (human, TPM1 gene product) (natural protein)
6 | 46.2 | Tpm1.9, cytoplasmic tropomyosin isoform (human, TPM1 gene product) (natural protein)
7 | 44.4 | AS-Tpm1.8, Tpm1.8 with N-terminal Ala-Ser extension (natural protein)
8 | 47 | AS-Tpm1.9, Tpm1.9 with N-terminal Ala-Ser extension (natural protein)

Target: F-actin (fibrillar actin from rabbit skeletal muscle) (rabbit) (UniProt P68135)
Assay: not given
Settings: not given

Row | bending stiffness of Tpm–F-actin filaments, two-beam optical trap, median (IQT, N); F-actin alone 2.35 [N∙m^2] | Substance
9 | 3.75e-26 | Tpm1.8, cytoplasmic tropomyosin isoform (human, TPM1 gene product) (natural protein)
10 | 4.8e-26 | Tpm1.9, cytoplasmic tropomyosin isoform (human, TPM1 gene product) (natural protein)
11 | 8.1e-26 | AS-Tpm1.8, Tpm1.8 with N-terminal Ala-Ser extension (natural protein)
12 | 4.7e-26 | AS-Tpm1.9, Tpm1.9 with N-terminal Ala-Ser extension (natural protein)

System: not listed separately
Assay: viscosity measurement (falling ball micro viscometer); Tpm 1 mg/mL in 30 mM Hepes-Na pH 7.3, NaCl from 30 to 200 mM, 4 mM DTT, 20 °C; excess viscosity over buffer as measure of end-to-end interactions between adjacent Tpm molecules
Settings: other: viscosity measurement (falling ball micro viscometer)

Row | Substance | solution viscosity at 200 mM NaCl [mPa·s] | excess viscosity at 30 mM NaCl | excess viscosity at 200 mM NaCl
13 | Tpm1.8, cytoplasmic tropomyosin isoform (human, TPM1 gene product) | 0.593 |  | 
14 | Tpm1.9, cytoplasmic tropomyosin isoform (human, TPM1 gene product) | 0.886 | approximately 2.25 mPa·s for 30 mM NaCl | close to 0.5 mPa·s for 200 mM NaCl
15 | AS-Tpm1.9, Tpm1.9 with N-terminal Ala-Ser extension |  | approximately 2.25 mPa·s for 30 mM NaCl | close to 0.5 mPa·s for 200 mM NaCl
